These substances were tested against HLA-A*03:01 (Homo sapiens, UniProt P04439) (assay: MHC binding assay, UV-ligand exchange with β2m ELISA, HLA-A*03:01). Details: peptide exchange yield.
Description: (§1) Candidate peptides for T cell based therapies according to the present invention were further tested for their MHC binding capacity (affinity). The individual peptide-MHC complexes were produced by UV-ligand exchange, where a UV-sensitive peptide is cleaved upon UV-irradiation, and exchanged with the peptide of interest as analyzed. Only peptide candidates that can effectively bind and stabilize the peptide-receptive MHC molecules prevent dissociation of the MHC complexes. To determine the yield of the exchange reaction, an ELISA was performed based on the detection of the light chain (β2m) of stabilized MHC complexes. The assay was performed as generally described in Rodenko et al. (Rodenko et al., 2006).
(§2) 96 well MAXISorp plates (NUNC) were coated over night with 2 ug/ml streptavidin in PBS at room temperature, washed 4× and blocked for 1 h at 37° C. in 2% BSA containing blocking buffer. Refolded HLA-A*02:01/MLA-001 monomers served as standards, covering the range of 15-500 ng/ml. Peptide-MHC monomers of the UV-exchange reaction were diluted 100-fold in blocking buffer. Samples were incubated for 1 h at 37° C., washed four times, incubated with 2 ug/ml HRP conjugated anti-β2m for 1 h at 37° C., washed again and detected with TMB solution that is stopped with […]. Absorption was measured at 450 nm. Candidate peptides that show a high exchange yield (preferably higher than 50%, most preferred higher than 75%) are generally preferred for a generation and production of antibodies or fragments thereof, and/or T cell receptors or fragments thereof, as they show sufficient avidity to the MHC molecules and prevent dissociation of the MHC complexes.

| Substance | Peptide exchange |
| --- | --- |
| 219 (HSYSSPSTK; listed as Homo sapiens) [compound 219] | “+++” (>50 = +++) |
| 216 (RIKAPSRNTIQK; listed as Homo sapiens) [compound 216] | “++” (>20% = ++) |
| 47 (SVLDLSVHK; listed as Homo sapiens) [compound 47] | “++” (>20% = ++) |
| 40 (RSKEYIRKK; listed as Homo sapiens) [compound 40] | “+” (>10% = +) |
| 44 (KVYDPVSEY; listed as Homo sapiens) [compound 44] | “++” (>20% = ++) |
| 45 (VVFPFPVNK; listed as Homo sapiens) [compound 45] | “+++” (>50 = +++) |
| 211 (ATYNKQPMYR; listed as Homo sapiens) [compound 211] | “+++” (>50 = +++) |
| 208 (KLNPQQAPLY; listed as Homo sapiens) [compound 208] | “++” (>20% = ++) |
| 51 (ASTTVLALK; listed as Homo sapiens) [compound 51] | “++” (>20% = ++) |
| 52 (KAFNQSSTLTK; listed as Homo sapiens) [compound 52] | “+++” (>50 = +++) |
| 38 (KARKSAGAAK; listed as Homo sapiens) [compound 38] | “+++” (>50 = +++) |
| 41 (SVAHLLSKY; listed as Homo sapiens) [compound 41] | “++” (>20% = ++) |
| 218 (RVLTGVFTK; listed as Homo sapiens) [compound 218] | “++” (>20% = ++) |
| 49 (GLLEEALFY; listed as Homo sapiens) [compound 49] | “++” (>20% = ++) |
| 214 (ATGAATPKK; listed as Homo sapiens) [compound 214] | “+++” (>50 = +++) |
| 221 (LLNRHILAH; listed as Homo sapiens) [compound 221] | “+++” (>50 = +++) |
| 28 (VILESIFLK; listed as Homo sapiens) [compound 28] | “++” (>20% = ++) |
| 210 (RMYSQLKTLQK; listed as Homo sapiens) [compound 210] | “+++” (>50 = +++) |

| Substance | Peptide exchange |
| --- | --- |
| 48 (RIKPPGPTAVPK; listed as Homo sapiens) [compound 48] | “+++” (>50 = +++) |
| 36 (KAKAAAKPK; listed as Homo sapiens) [compound 36] | “++” (>20% = ++) |
| 220 (SISNLVFTY; listed as Homo sapiens) [compound 220] | “++” (>20% = ++) |
| 37 (KAKKPAGAAK; listed as Homo sapiens) [compound 37] | “+++” (>50 = +++) |
| 32 (KTSNIVKIK; listed as Homo sapiens) [compound 32] | “++” (>20% = ++) |
| 35 (ATKSPAKPK; listed as Homo sapiens) [compound 35] | “+++” (>50 = +++) |
| 213 (RVYNIYIRR; listed as Homo sapiens) [compound 213] | “++” (>20% = ++) |
| 29 (RIYDEILQSK; listed as Homo sapiens) [compound 29] | “++” (>20% = ++) |
| 34 (SVYSETSNMDK; listed as Homo sapiens) [compound 34] | “+++” (>50 = +++) |
| 46 (RVFPSPMRI; listed as Homo sapiens) [compound 46] | “++” (>20% = ++) |
| 217 (TTVPHVFSK; listed as Homo sapiens) [compound 217] | “++” (>20% = ++) |
| 209 (KTLPAMLGTGK; listed as Homo sapiens) [compound 209] | “++” (>20% = ++) |
| 42 (SVSSSTHFTR; listed as Homo sapiens) [compound 42] | “++” (>20% = ++) |
| 43 (KLMETSMGF; listed as Homo sapiens) [compound 43] | “++” (>20% = ++) |
| 215 (KATGAATPK; listed as Homo sapiens) [compound 215] | “++” (>20% = ++) |
| 33 (SVFEGDSIVLK; listed as Homo sapiens) [compound 33] | “++” (>20% = ++) |
| 30 (RTYGFVLTF; listed as Homo sapiens) [compound 30] | “++” (>20% = ++) |
| 212 (LLWHWDTTQSLK; listed as Homo sapiens) [compound 212] | “+” (>10% = +) |

These substances were tested against HLA-A*01:01 (Homo sapiens, UniProt P04439, A114D/A174V/A182V/D101N/D185E/E176A/E190D/L180R/Q94H/R68K/S129P/T187R/V100A/V91M/W191G) (assay: MHC binding assay, UV-ligand exchange with β2m ELISA, HLA-A*01:01). Details: peptide exchange yield.
Description: as §1, §2

| Substance | Peptide exchange |
| --- | --- |
| 4 (ALDQNKMHY; listed as Homo sapiens) [compound 4] | “+++” (>50 =+++) |
| 196 (FTDIDGQVY; listed as Homo sapiens) [compound 196] | “+++” (>50 =+++) |
| 189 (VTEEPQRLFY; listed as Homo sapiens) [compound 189] | “++++” (>75% = ++++) |
| 191 (ISEAGKDLLY; listed as Homo sapiens) [compound 191] | “+++” (>50 =+++) |
| 7 (FMDSESFYY; listed as Homo sapiens) [compound 7] | “+” (>10% = +) |
| 11 (AAADHHSLY; listed as Homo sapiens) [compound 11] | “+++” (>50 =+++) |
| 15 (SVADIRNAY; listed as Homo sapiens) [compound 15] | “++” (>20% = ++) |
| 13 (ITDIHIKY; listed as Homo sapiens) [compound 13] | “++++” (>75% = ++++) |
| 193 (LTDSEKGNSY; listed as Homo sapiens) [compound 193] | “+++” (>50 =+++) |
| 14 (TFDLTVVSY; listed as Homo sapiens) [compound 14] | “++” (>20% = ++) |
| 5 (GTDVLSTRY; listed as Homo sapiens) [compound 5] | “+++” (>50 =+++) |
| 12 (ATDIVDSQY; listed as Homo sapiens) [compound 12] | “+++” (>50 =+++) |
| 190 (HVDQDLTTY; listed as Homo sapiens) [compound 190] | “++” (>20% = ++) |
| 8 (STDSAGSSY; listed as Homo sapiens) [compound 8] | “++++” (>75% = ++++) |
| 3 (YINPAKLTPY; listed as Homo sapiens) [compound 3] | “++” (>20% = ++) |
| 16 (WIGDKSFEY; listed as Homo sapiens) [compound 16] | “++” (>20% = ++) |
| 188 (YVDAGTPMY; listed as Homo sapiens) [compound 188] | “+++” (>50 =+++) |
| 1 (LTEGHSGNYY; listed as Homo sapiens) [compound 1] | “++++” (>75% = ++++) |
| 9 (YSHPQYSSY; listed as Homo sapiens) [compound 9] | “++” (>20% = ++) |
| 6 (VTEGVAQTSFY; listed as Homo sapiens) [compound 6] | “++++” (>75% = ++++) |
| 194 (YTDKKSIIY; listed as Homo sapiens) [compound 194] | “+++” (>50 =+++) |
| 192 (RSDPGGGGLAY; listed as Homo sapiens) [compound 192] | “+++” (>50 =+++) |
| 10 (YSDIGHLL; listed as Homo sapiens) [compound 10] | “++” (>20% = ++) |
| 195 (YSDKEFAGSY; listed as Homo sapiens) [compound 195] | “++++” (>75% = ++++) |

The substances below were run against HLA-A*02:01 (Homo sapiens, UniProt P04439, D140Y/D185E/D98H/E176V/E277Q/G131W/G231S/I119V/I121R/I166T/I218V/L300P/L318F/N151K/N90K/P208A/P217A/Q86G/Q94H/R138H/R169H/T345S) (assay: MHC binding assay, UV-ligand exchange with β2m ELISA, HLA-A*02:01). Details: peptide exchange yield.
Description: as §1, §2

| Substance | Peptide exchange |
| --- | --- |
| 197 (SLADVHIEV; listed as Homo sapiens) [compound 197] | “++++” (>75% = ++++) |
| 200 (VMLQINPKL; listed as Homo sapiens) [compound 200] | “+++” (>50 = +++) |
| 205 (FLINTNSEL; listed as Homo sapiens) [compound 205] | “++++” (>75% = ++++) |
| 26 (SLYVQQLKI; listed as Homo sapiens) [compound 26] | “++++” (>75% = ++++) |
| 20 (FSLEDLVRI; listed as Homo sapiens) [compound 20] | “++” (>20% = ++) |
| 22 (ILHAQTLKI; listed as Homo sapiens) [compound 22] | “+++” (>50 = +++) |
| 27 (RLIAKEMNI; listed as Homo sapiens) [compound 27] | “++++” (>75% = ++++) |
| 203 (FLLPKVQSI; listed as Homo sapiens) [compound 203] | “++++” (>75% = ++++) |
| 19 (SLFEGIYTI; listed as Homo sapiens) [compound 19] | “++++” (>75% = ++++) |
| 201 (ILAAVETRL; listed as Homo sapiens) [compound 201] | “+++” (>50 = +++) |

From patent US11135246B2, “Peptides and combination of peptides for use in immunotherapy against leukemias and other cancers” (Immatics Biotechnologies GmbH, priority 2017, dated 2021)
